The source of these data is IntAct's records for PubMed 22745600.

The target in one assay is pbx1_mouse Pbx1 (UniProt P41778).
Assay [1] has as its target exd_drome exd (UniProt P40427).
Assay [2] concerns the target exd_drome exd (UniProt P40427). The source holds these as a separate data set.
Assay [3] deals with exd_drome exd (UniProt P40427). This is another data set of the same source.
exd_drome exd, sequence (P40427 whole entry): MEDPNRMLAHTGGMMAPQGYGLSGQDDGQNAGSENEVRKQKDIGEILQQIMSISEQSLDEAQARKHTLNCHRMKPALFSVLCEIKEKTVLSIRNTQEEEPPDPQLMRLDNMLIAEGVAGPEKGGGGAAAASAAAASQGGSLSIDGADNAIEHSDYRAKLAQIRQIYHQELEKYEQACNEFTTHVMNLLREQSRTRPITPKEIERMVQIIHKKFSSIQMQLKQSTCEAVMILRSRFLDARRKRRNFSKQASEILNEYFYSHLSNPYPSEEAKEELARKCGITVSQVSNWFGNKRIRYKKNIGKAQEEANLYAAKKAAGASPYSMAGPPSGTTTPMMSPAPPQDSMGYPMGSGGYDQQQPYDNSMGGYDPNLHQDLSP

Homeotic protein ultrabithorax (Drosophila melanogaster (Fruit fly)), P83949 K358A;E359A;N361A;E362A;Q363A, sequence (P83949 whole entry K358A/E359A/N361A/E362A/Q363A): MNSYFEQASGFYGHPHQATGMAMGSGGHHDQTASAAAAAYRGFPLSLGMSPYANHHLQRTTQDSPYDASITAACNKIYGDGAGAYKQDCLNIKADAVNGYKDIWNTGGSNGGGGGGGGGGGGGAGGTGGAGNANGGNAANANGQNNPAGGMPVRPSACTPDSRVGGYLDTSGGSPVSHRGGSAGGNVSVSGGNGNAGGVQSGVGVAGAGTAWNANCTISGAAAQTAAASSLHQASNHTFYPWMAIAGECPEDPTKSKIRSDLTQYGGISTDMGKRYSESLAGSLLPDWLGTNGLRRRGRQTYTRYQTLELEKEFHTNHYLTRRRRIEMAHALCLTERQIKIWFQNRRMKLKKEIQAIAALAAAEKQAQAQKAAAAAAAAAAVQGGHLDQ
pbx1_mouse Pbx1, sequence (P41778 whole entry): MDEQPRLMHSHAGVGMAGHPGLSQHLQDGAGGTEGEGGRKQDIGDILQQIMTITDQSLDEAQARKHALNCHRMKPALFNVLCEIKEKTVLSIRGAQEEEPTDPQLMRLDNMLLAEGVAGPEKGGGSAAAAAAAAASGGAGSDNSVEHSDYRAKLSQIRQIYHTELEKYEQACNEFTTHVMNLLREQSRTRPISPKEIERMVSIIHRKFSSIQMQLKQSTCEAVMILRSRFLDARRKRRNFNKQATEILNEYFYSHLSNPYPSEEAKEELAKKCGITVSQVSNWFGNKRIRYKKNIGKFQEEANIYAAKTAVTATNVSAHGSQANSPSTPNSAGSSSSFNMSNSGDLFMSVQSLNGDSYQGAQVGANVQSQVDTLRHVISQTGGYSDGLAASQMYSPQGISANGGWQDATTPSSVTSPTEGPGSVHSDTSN
Homeobox protein abdominal-A (Drosophila melanogaster (Fruit fly)), P29555 E462A;I463A;N464A;E465A, sequence (P29555 whole entry E462A/I463A/N464A/E465A): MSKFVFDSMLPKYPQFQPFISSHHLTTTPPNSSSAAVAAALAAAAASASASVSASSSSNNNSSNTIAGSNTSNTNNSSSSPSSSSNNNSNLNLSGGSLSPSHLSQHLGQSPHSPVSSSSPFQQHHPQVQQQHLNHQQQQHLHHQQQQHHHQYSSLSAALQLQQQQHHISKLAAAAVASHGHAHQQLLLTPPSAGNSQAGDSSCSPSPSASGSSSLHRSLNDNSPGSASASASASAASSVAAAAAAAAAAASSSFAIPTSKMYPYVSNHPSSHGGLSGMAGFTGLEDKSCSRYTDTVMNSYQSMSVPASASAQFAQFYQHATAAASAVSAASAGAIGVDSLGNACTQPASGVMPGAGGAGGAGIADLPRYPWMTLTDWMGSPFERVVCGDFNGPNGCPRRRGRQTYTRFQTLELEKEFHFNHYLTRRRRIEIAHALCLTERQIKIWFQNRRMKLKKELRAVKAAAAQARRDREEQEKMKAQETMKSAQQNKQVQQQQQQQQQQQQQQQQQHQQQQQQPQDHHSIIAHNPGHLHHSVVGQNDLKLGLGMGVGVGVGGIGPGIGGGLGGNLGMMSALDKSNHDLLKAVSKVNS
Homeotic protein labial (Drosophila melanogaster (Fruit fly)), P10105 K393A;W394A;M395A, sequence (P10105 other isoform, or with tags, fused parts or gaps K393A;W394A;M395A): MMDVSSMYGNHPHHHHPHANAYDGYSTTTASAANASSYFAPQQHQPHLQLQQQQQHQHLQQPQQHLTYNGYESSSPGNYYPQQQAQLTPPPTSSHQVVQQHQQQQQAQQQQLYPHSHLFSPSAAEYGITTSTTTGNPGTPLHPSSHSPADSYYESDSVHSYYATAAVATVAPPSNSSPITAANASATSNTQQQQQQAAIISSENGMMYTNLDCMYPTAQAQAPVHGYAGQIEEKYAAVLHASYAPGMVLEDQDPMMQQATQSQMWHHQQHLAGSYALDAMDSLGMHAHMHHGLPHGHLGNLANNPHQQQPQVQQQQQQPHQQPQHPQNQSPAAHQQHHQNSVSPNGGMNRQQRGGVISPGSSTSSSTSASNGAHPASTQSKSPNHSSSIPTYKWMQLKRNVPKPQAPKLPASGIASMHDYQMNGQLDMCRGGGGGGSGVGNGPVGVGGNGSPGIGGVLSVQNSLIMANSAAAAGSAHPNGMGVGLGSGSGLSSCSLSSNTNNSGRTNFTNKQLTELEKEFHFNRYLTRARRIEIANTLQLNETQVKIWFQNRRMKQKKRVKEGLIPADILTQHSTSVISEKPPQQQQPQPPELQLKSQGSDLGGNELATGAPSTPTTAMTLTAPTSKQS
Homeobox protein Hox-B8 (Mus musculus), P09632 W137A;M138A, sequence (P09632 whole entry W137A/M138A): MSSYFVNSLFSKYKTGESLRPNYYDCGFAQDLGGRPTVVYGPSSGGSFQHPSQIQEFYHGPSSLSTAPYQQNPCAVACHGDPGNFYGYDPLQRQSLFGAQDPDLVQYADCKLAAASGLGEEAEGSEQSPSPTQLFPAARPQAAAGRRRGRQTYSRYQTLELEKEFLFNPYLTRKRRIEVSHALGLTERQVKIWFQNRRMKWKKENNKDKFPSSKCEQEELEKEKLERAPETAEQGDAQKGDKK
Homeobox protein abdominal-A (Drosophila melanogaster (Fruit fly)), P29555 T375A;D376A;W377A, sequence (P29555 whole entry T375A/D376A/W377A): as the sequence (P29555 whole entry E462A/I463A/N464A/E465A) above, with T375A, D376A, W377A, A462E, A463I, A464N, A465E counted along it

Turning to “Homeobox protein Hox-B8 (Mus musculus), P09632 W137A;M138A”, in the assay with pbx1_mouse Pbx1, the “effect of a mutation on the interaction” value is on record as “decreasing interaction strength”.
Regarding “Homeobox protein abdominal-A (Drosophila melanogaster (Fruit fly)), P29555 E462A;I463A;N464A;E465A”, the “effect of a mutation on the interaction” value with exd_drome exd [1] was “decreasing interaction strength”.
“Homeobox protein abdominal-A (Drosophila melanogaster (Fruit fly)), P29555 T375A;D376A;W377A”: the “effect of a mutation on the interaction” value with exd_drome exd [1] is “decreasing interaction strength”.
For the substance “Homeotic protein labial (Drosophila melanogaster (Fruit fly)), P10105 K393A;W394A;M395A”, the “effect of a mutation on the interaction” value with exd_drome exd [2] is on record as “decreasing interaction strength”.
On to “Homeotic protein ultrabithorax (Drosophila melanogaster (Fruit fly)), P83949 K358A;E359A;N361A;E362A;Q363A”, for which the “effect of a mutation on the interaction” value in the assay with exd_drome exd [3] is reported as “decreasing interaction strength”.
